Two molecules from patent US20200055913A1 (University of California, published 2020) can be followed below.

In assay [1] the target is T1, human TLR4 on human PBMC (CD14+CD11b+ monocytes) (human, UniProt O00206 24-839).
T1 construct: whole, on cells
Nature of the assay: competitive hRetn/LPS binding assay on human PBMC, flow cytometry. The protocol: With reference to FIG. 5J, the functional ability of the hRetn N-peptide to block LPS binding and function was tested. The binding experiments were performed on ice to rule out effects of LPS-induced TLR4 endocytosis, which would have added complexity for interpretation of the data. Pre-incubation of human PBMC with the hRetn N-peptide or full-length hRetn inhibited LPS binding to CD14+CD11 b+ monocytes. […] An additional formulation of human resistin fused to the humanFc Ig fragment was also effective at inhibiting proinflammatory cytokines and promoting IL-10 expression in primary macrophage cultures (FIG. 7C).
Human PBMCs. Human buffy coat was purchased from Zen-bio. Buffy coat was overlaid on top of Histopaque-1077 and spun at 700g at 25° C. with no brake and PBMCs were recovered from the interphase. PBMCs were plated in 96-well plates and stimulated with mammalian-derived human resistin (1 μg/mL, LifeSpan Biosciences) or hRetn N-peptide (1 μg/mL). After 24 hours, ultrapure LPS (100 ng/mL, Invivogen) was added and supernatants recovered for ELISA at 24 hours. Where indicated, cells were incubated for 4 hours with STAT3 (5, 15-DPP, 50 μM) or TBK1 (BX-795, 1 μM) inhibitors prior to hRetn treatment. For the hRetn competitive binding assay, 1×10^6 cells were incubated with recombinant hRetn (0.5 μg), washed in PBS then incubated with 0.5 μg LPS-biotin (incubations were 30 minutes on ice). […]

Assay [2] has as its target T2, his-human CAP1 (cyclic adenylate associated protein 1) (human, UniProt Q01518 1-475, limits assumed).
T2 construct: Proposed receptor of hRetn, tested in the pull-down; also called his-CAP1; His-CAP1; not shown: His tag
Nature of the assay: pull-down on nickel-NTA agarose beads, anti-hRetn Western blot. The method, then:
(§1) Given that there are no publicly available CAP1 deficient mice, a direct protein-protein interaction of hRetn to TLR4 or CAP1 was investigated as an alternative to cell binding assays. A pull-down assay was performed utilizing recombinant hRetn with histidine (his)-tagged human TLR4, his-human CAP1 or his-maltose binding protein (MBP) as a negative control (FIG. 4G). In the pull-down elution, Western blot using anti-his antibody confirmed that his-MBP, his-TLR4 and his-CAP1 are all pulled down by the nickel-NTA agarose beads. In addition, when blotting the elution fraction with anti-hRetn antibody, hRetn was only present in the elution with his-TLR4, not his-CAP1 or his-MBP. To ensure that this interaction was not due to low-level LPS contamination, this pull-down assay was also performed with mammalian cell-derived hRetn. Similar to E. coli-derived hRetn, mammalian-derived hRetn is only detected when pulled down with his-TLR4, not his-CAP1 or his-MBP.
(§2) Pull-down Assay. […] His-MBP, His-TLR4 and His-CAP1 were detected by anti-His antibody (Abcam), and hRetn was detected by anti-hRetn antibody (donated by Mitchell Lazar) by Western Blot. […]
Background: A western blot detects proteins with antibodies after separation by electrophoresis.

The target of assay [3] is his-maltose binding protein (MBP) (UniProt P0AEX9 27-396 = MBP). The description is as above. The protocol: as §1, §2

T1 sequence (O00206 24-839): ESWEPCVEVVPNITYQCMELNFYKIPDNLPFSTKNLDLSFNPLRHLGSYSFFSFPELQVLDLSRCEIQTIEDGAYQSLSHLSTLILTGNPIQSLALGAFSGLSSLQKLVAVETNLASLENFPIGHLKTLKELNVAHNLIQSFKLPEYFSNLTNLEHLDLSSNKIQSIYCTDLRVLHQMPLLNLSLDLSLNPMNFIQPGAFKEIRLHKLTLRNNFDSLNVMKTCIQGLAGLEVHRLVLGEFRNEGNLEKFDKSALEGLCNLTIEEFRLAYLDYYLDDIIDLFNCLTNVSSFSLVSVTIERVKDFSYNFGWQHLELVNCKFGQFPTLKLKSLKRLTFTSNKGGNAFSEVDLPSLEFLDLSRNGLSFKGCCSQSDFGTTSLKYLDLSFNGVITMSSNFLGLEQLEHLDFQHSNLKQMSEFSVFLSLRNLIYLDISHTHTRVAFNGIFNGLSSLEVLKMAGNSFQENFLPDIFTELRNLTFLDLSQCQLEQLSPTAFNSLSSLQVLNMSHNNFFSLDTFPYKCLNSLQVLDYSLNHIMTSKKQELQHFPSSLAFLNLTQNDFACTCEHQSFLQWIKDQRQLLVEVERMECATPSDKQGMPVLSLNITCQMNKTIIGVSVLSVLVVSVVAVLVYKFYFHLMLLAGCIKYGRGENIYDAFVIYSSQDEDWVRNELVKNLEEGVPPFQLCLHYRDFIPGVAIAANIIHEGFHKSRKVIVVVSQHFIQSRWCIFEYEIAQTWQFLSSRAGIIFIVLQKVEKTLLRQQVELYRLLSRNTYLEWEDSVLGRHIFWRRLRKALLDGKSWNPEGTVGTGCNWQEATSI
T2 sequence (Q01518 whole entry): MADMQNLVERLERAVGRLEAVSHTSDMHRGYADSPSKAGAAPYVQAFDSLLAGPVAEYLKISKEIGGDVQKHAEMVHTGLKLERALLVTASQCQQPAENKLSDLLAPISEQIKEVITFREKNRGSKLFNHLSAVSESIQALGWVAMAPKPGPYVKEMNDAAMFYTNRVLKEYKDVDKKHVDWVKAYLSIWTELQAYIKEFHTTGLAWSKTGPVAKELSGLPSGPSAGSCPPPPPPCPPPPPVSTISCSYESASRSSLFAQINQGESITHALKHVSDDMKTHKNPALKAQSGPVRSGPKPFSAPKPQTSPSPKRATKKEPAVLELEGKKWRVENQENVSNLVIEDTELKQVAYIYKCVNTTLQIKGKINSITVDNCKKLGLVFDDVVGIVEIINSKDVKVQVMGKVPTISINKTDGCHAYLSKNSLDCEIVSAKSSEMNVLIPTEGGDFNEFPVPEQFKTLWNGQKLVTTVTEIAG

B1: mammalian cell-derived human resistin (hRetn), 293T cell-derived (LifeSpan Biosciences) (ligand)
chain: KTLCSMEEAINERIQEVAGSLIFRAISSIGLECQSVTSRGDLATCPRGFAVTGCTCGSACGSWDVRAETTCHCQCAGMDWTGARCCRVQP
notes: Bought protein (LifeSpan Biosciences); also called mammalian-derived hRetn; 293T derived hRetn
Turning to B1, the binding result in assay [1] is reported as “binds”.

B2: recombinant human resistin (hRetn), E. coli-derived (Peprotech) (ligand)
chain: SSKTLCSMEEAINERIQEVAGSLIFRAISSIGLECQSVTSRGDLATCPRGFAVTGCTCGSACGSWDVRAETTCHCQCAGMDWTGARCCRVQP
notes: Bought protein (Peprotech), made in bacteria; also called recombinant hResistin; E. coli-derived hRetn
Take B2: the binding result in assay [2] and in assay [3] was “no binding” throughout.
